Measured values published in US20260241049A1, “Radiopharmaceutical Compositions Targeting Glypican-3 and Uses Thereof” (RayzeBio, Inc., priority 2023, published 2026).
Starred links: 1 amine or outer side, 2 acyl side, 3 side chain; linkers in the order of their positions; H or OH if unused. Positions of bridges follow the written chain, without caps; N, C: chain ends. Non-standard residues stand in square brackets, D forms with d. Primed or numbered codes have the meaning given here. MeA4paa = 3-(1-(carboxymethyl)piperidin-4-yl)-2-(methylamino)propanoic acid, CN([C@@H](CC1CCN(CC(=O)[*:3])CC1)C(=O)[*:2])[*:1]; MeHseMe(3) = N-methyl-O-methyl-homoserine, 4-methoxy-2-(methylamino)butanoic acid, COCC[C@@H](C(=O)[*:2])N(C)[*:1]; F4aao″ = 2-amino-3-(4-(carboxymethoxy)phenyl)propanoic acid, O=C([C@H](Cc1ccc(OCC(=O)[*:3])cc1)N[*:1])[*:2]; TMe(3) = O-methyl-L-threonine ((2S,3R)-2-amino-3-methoxybutanoic acid), CO[C@H](C)[C@H](N[*:1])C(=O)[*:2]; Phe(4-(1-Me-pyrazol-4-yl)) = Cn1cc(-c2ccc(C[C@H](N)C(=O)O)cc2)cn1; TMe = O-methyl-L-threonine, CO[C@H](C)[C@H](N[*:1])C(=O)[*:2]; NMeAla(isoquinolin-7-yl) = CN[C@@H](Cc1ccc2ccncc2c1)C(=O)O; Phe(4-CH2COOH) = N[C@@H](Cc1ccc(CC(=O)O)cc1)C(=O)O; 3Pal(6-Ph) = N[C@@H](Cc1ccc(-c2ccccc2)nc1)C(=O)O; Phe(4-COOH) = N[C@@H](Cc1ccc(C(=O)O)cc1)C(=O)O; NMe2Nal = CN[C@@H](Cc1ccc2ccccc2c1)C(=O)O; NMe3Pal = CN[C@@H](Cc1cccnc1)C(=O)O; NMeY = CN[C@@H](Cc1ccc(O)cc1)C(=O)O; NMeI = CC[C@H](C)[C@H](NC)C(=O)O; aIle = CC[C@@H](C)[C@H](N)C(=O)O; NMeQ = CN[C@@H](CCC(N)=O)C(=O)O; NMeK = CN[C@@H](CCCCN)C(=O)O; NMeC = CN[C@@H](CS)C(=O)O; NMeA = CN[C@@H](C)C(=O)O; MeK = methyl-L-lysine

B1: Macrocyclic peptide of Example 2-44 (SEQ ID No. 69) (peptide)
peptide: {CH2CO}-[NMeA][NMe3Pal]DY[aIle]IY[NMe2Nal]G[3Pal(6-Ph)][NMeC]-NH2
modifications: thioether N-11
SMILES: CC[C@@H](C)[C@@H]1NC(=O)[C@H](Cc2ccc(O)cc2)NC(=O)[C@H](CC(=O)O)NC(=O)[C@H](Cc2cccnc2)N(C)C(=O)[C@H](C)N(C)C(=O)CSC[C@@H](C(N)=O)N(C)C(=O)[C@H](Cc2ccc(-c3ccccc3)nc2)NC(=O)CNC(=O)[C@H](Cc2ccc3ccccc3c2)N(C)C(=O)[C@H](Cc2ccc(O)cc2)NC(=O)[C@H]([C@@H](C)CC)NC1=O
notes: 11 residues
B2: Macrocyclic peptide of Example 2-40 (SEQ ID No. 66) (peptide)
peptide: {CH2CO}-[NMeA][NMeY]DY[TMe]IY[NMe2Nal]G[3Pal(6-Ph)][NMeC]-NH2
modifications: thioether N-11
SMILES: CC[C@H](C)[C@@H]1NC(=O)[C@H]([C@@H](C)OC)NC(=O)[C@H](Cc2ccc(O)cc2)NC(=O)[C@H](CC(=O)O)NC(=O)[C@H](Cc2ccc(O)cc2)N(C)C(=O)[C@H](C)N(C)C(=O)CSC[C@@H](C(N)=O)N(C)C(=O)[C@H](Cc2ccc(-c3ccccc3)nc2)NC(=O)CNC(=O)[C@H](Cc2ccc3ccccc3c2)N(C)C(=O)[C@H](Cc2ccc(O)cc2)NC1=O
notes: 11 residues
B3: Macrocyclic peptide of Example 2-42 (SEQ ID No. 31) (peptide)
peptide: {CH2CO}-[NMeK][NMeI]D[NMeQ][Phe(4-COOH)][TMe]I[F4aao″][NMeAla(isoquinolin-7-yl)]G[3Pal(6-Ph)][NMeC][dE]-NH2
modifications: thioether N-12
SMILES: CC[C@H](C)[C@@H]1NC(=O)[C@H]([C@@H](C)OC)NC(=O)[C@H](Cc2ccc(C(=O)O)cc2)NC(=O)[C@H](CCC(N)=O)N(C)C(=O)[C@H](CC(=O)O)NC(=O)[C@H]([C@@H](C)CC)N(C)C(=O)[C@H](CCCCN)N(C)C(=O)CSC[C@@H](C(=O)N[C@H](CCC(=O)O)C(N)=O)N(C)C(=O)[C@H](Cc2ccc(-c3ccccc3)nc2)NC(=O)CNC(=O)[C@H](Cc2ccc3ccncc3c2)N(C)C(=O)[C@H](Cc2ccc(OCC(=O)O)cc2)NC1=O
B4: Macrocyclic peptide of Example 2-43 (SEQ ID No. 32) (peptide)
peptide: {CH2CO}-[NMeK][NMeI]D[NMeQ][Phe(4-COOH)][TMe]I[F4aao″][NMeAla(isoquinolin-7-yl)]G[3Pal(6-Ph)][NMeC]E-NH2
modifications: thioether N-12
SMILES: CC[C@H](C)[C@@H]1NC(=O)[C@H]([C@@H](C)OC)NC(=O)[C@H](Cc2ccc(C(=O)O)cc2)NC(=O)[C@H](CCC(N)=O)N(C)C(=O)[C@H](CC(=O)O)NC(=O)[C@H]([C@@H](C)CC)N(C)C(=O)[C@H](CCCCN)N(C)C(=O)CSC[C@@H](C(=O)N[C@@H](CCC(=O)O)C(N)=O)N(C)C(=O)[C@H](Cc2ccc(-c3ccccc3)nc2)NC(=O)CNC(=O)[C@H](Cc2ccc3ccncc3c2)N(C)C(=O)[C@H](Cc2ccc(OCC(=O)O)cc2)NC1=O

Each binder was assayed against T1, Human Glypican3-Fc (ACRO Biosystems, GP3-H5258) (human, UniProt P51654 25-559) (assay: SPR (Biacore T200), Method B-3: Glypican3-Fc captured on Protein A chip, peptide as analyte).
T1 construct: Bought fusion protein, captured in Methods B-2, B-3 and B-4; Catalogue number is printed only in Method B-2; not shown: Fc part of the bought fusion
Experimental: A Protein A sensor chip (Cytiva) was inserted into a Biacore T200 (Cytiva), priming was performed three times with a running buffer: HBS-P+, pH 7.4 (Cytiva), and equilibration was carried out at a flow rate of 30 μL/min. Glypican3-Fc was allowed to react for 60 seconds at a flow rate of 10 μL/min. After capturing human Glypican3-Fe, a peptide solution prepared to 10 mM in DMSO solution was diluted with a running buffer to a final concentration of 10 μM. […] Using the above samples, peptide kinetics for Glypican3 was obtained by SPR measurement. Kinetics evaluation of Glypican3 was performed by SPR measurements at a flow rate of 10 LL/min, setting the association time to 120 seconds and the disassociation time to 600 seconds.
The obtained data by Method B-1, Method B-2, Method B-3 and Method B-4 were analyzed by follow. Single Cycle Kinetics was used as the kinetics evaluation model, and curve fitting was performed using Biacore T200 Evaluation Software Version 3.0 (Cytiva).

Compared with B1, B2 is 2.3-fold lower in Kd: 49.1 nM for the first, 21.5 nM for the second. The second binds more tightly here.

Going from B3 to B4, the Kd rises from 3.2 nM to 9.3 nM (2.9-fold). The first binds more tightly here.

{CH2CO}-[MeK][NMeI]Q[NMeQ][Phe(4-COOH)]II[Phe(4-COOH)][NMe2Nal]G[Phe(4-(1-Me-pyrazol-4-yl))][NMeC]-NH2 (thioether N-12) [Macrocyclic peptide of Example 2-46 (SEQ ID No. 6)] and {CH2CO}-[MeK][MeHseMe(3)]D[NMeQ][Phe(4-COOH)]II[Phe(4-CH2COOH)][NMe2Nal]G[3Pal(6-Ph)][NMeC]-NH2 (thioether N-12) [Macrocyclic peptide of Example 2-47 (SEQ ID No. 21)] are the same in Kd: 0.2 nM for the first, 0.2 nM for the second.

First: {CH2CO}-[MeK][MeHseMe(3)]D[NMeQ][Phe(4-COOH)]II[Phe(4-CH2COOH)][NMe2Nal]G[Phe(4-(1-Me-pyrazol-4-yl))][NMeC]-NH2 (thioether N-12) [Macrocyclic peptide of Example 2-48 (SEQ ID No. 22)]
Second: {CH2CO}-[MeK][NMeQ]D[MeA4paa][Phe(4-COOH)][TMe(3)]I[Phe(4-CH2COOH)][NMe2Nal]G[Phe(4-(1-Me-pyrazol-4-yl))][NMeC]-NH2 (thioether N-12) [Macrocyclic peptide of Example 2-51 (SEQ ID No. 25)]
The Kd of the first is 5-fold lower: 0.5 nM for the first, 2.5 nM for the second.

With {CH2CO}-[NMeQ][NMeQ]D[MeK][Phe(4-COOH)]II[Phe(4-CH2COOH)][NMe2Nal]G[Phe(4-(1-Me-pyrazol-4-yl))][NMeC]-NH2 (thioether N-12) [Macrocyclic peptide of Example 2-52 (SEQ ID No. 26)] the Kd was 1.6 nM.
